Reference: patent US20180021429A1, “ANTICANCER AGENTS OR ANTIMETASTATIC AGENTS USING FSTL1 AND COMBINATION DRUG THEREOF” (PHARMA FOODS INTERNATIONAL CO., LTD., priority 2015, published 2018)
“Also recorded” adds a separate entry of the source.

T1: FSTL1 (Homo sapiens, UniProt Q12841)
T1 sequence (Q12841 21-308): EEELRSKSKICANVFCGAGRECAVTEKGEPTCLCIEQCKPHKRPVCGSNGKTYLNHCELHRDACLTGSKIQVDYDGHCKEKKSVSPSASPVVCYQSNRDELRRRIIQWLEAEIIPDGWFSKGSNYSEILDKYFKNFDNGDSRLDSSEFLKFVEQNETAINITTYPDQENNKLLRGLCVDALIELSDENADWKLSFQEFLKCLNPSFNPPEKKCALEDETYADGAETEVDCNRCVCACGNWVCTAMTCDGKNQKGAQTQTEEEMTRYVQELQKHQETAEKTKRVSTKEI

B1: #5-8: chicken-mouse chimeric anti-FSTL1 antibody clone; variable regions SEQ ID NO: 771 (light), 773 (heavy) (antibody, V domains shown)
VH: AVTLDESGGGLQTPGGGLSLVCKGSGFTFSSFNMFWVRQAPGKGLEWVAGIGKDGVPKYGTAVDGRATISKDNGQSTMRLQLNNLRAEDTGTYFCAKAAGGCSYDWCGIYTGDIDTWGHGTEVIVSS
VL: ASTQPSSVSANPGEAVKITCSGGSGSYYGWYQQKSPGSAPVTVIYNNNQRPSDIPSRFSGSKSGSTATLTITGVQAEDEAVYFCGGYDSSTGHGGIFGAGTTLTVL
modifications: mouse constant regions
B2: #8-4: chicken-mouse chimeric anti-FSTL1 antibody clone; variable regions SEQ ID NO: 795 (light), 797 (heavy) (antibody, V domains shown)
VH: AVTLDESGGGLQTPGGGLSLVCKGSGFTLSSFNMFWVRQAPGKGLEWVAGVGKDGGTAYGAAVDGRATISRDSGQSTVRLQLNNLRAEDTGTYFCAKAAGGCSYSWCGAYVGDLDAWGHGTEVIVSS
VL: ASSQPSSVSANPGETVKITCSGGSGYYYGWYQQKSPGSAPVTVIYNNDNKPSDIPSRFSGSKSGSTGTLTITGVQVEDEAVYFCGGYDNSGTGIFGAGTTLTVL
modifications: mouse constant regions
B3: #5-2: chicken-mouse chimeric anti-FSTL1 antibody clone; variable regions SEQ ID NO: 763 (light), 765 (heavy) (antibody, V domains shown)
VH: AVTLDESGGGLQTPGGGLSLVCKGSGFTFSSFNMFWVRQAPGKGLEWVAGVGKDGGTGYGAAVDGRATISKDNGQSTLRLQLNNLRAEDTGTYYCAKAAGGCSYGWCGSYVGDIDAWGHGTEVIVSS
VL: ASTQPSSVSANPGEAVKITCSGGSGSYYGWYQQKSPGSAPVTVIYNNNQRPSDIPSRFSGSKSGSTATLTITGVQAEDEAVYFCGGYDSSTGHGGIFGAGTTLTVL
modifications: mouse constant regions
B4: #8-7: chicken-mouse chimeric anti-FSTL1 antibody clone; variable regions SEQ ID NO: 799 (light), 801 (heavy) (antibody, V domains shown)
VH: AVTLDESGGGLQTPGGGLSLVCKGSGFTFSSFNMFWVRQAPGKGLEWVAGIGKDGVPKYGAAVDGRATISKDNGQSTLRLQLNNLRAEDTGTYFCAKAAGGCSYDWCGIYAGDIDTWGHGTEVIVSS
VL: ASTQPSSVSANPGEAVKITCSGGSGSYYGWYQQKSPGSAPVTVIYNNNQRPSDIPSRFSGSKSGSTATLTITGVQAEDEAVYFCGGYDSSTGHGGIFGAGTTLTVL
modifications: mouse constant regions

Experiments:
FSTL1 = molecular target: T1, FSTL1; assay: Inhibition of MSC induction by FSTL1 in mouse bone marrow cells, CD45-negative cells (Examples 6, 8, 12); format: cell-based; set-up: purchased R&D Systems, Inc. 1694-FN-050; conditions: antibody 10 μg/mL
Experimental: Mouse bone marrow cells prepared in the same way as in Example 4 were supplemented with 50 ng/mL (final concentration) of FSTL1 and 10 μg/mL of the anti-FSTL1 antibody (#5-2, #5-3, #5-8, #5-10, 45-43, #6-55, or #7-34) or a control antibody anti-DNP antibody and cultured under stimulation. 11 days thereafter, the number of cells was counted while the cells were stained with a PE-Cy5-labeled anti-CD45 antibody (BD Pharmingen/Becton, Dickinson and Company, Cat. No. 555484), and the content of CD45− negative cells reported to generally contain MSCs at a high rate was analyzed by flow cytometry using FACScan to calculate the percentage and number of MSCs per culture (FIG. 67A).
(§1) Mouse bone marrow cells prepared in the same way as in Example 4 were supplemented with 20 ng/mL (final concentration) of FSTL1 and 10 μg/mL of the anti-FSTL1 antibody (#5-2, #5-3, #5-8, #5-10, #5-43, #6-55, #8-1, #8-4, #8-7, and #8-8) or a control antibody anti-DNP antibody and cultured under stimulation. 8 days thereafter, the number of cells was counted while the cells were stained with a PE-Cy5-labeled anti-CD45 antibody, and the content of CD45− negative cells was analyzed by flow cytometry using FACScan to calculate the percentage and number of MSCs per culture (FIG. 68A).
as §1, with “(#5-2,” for “(#5-2, #5-3,”, “#5-8,” for “#5-8, #5-10, #5-43,”, “#6-55, #7-34,” for “#6-55,”, “#8-7, or” for “#8-7, and”, “(FIG. 69).” for “(FIG. 68A).”

[1] = system: human pancreatic cancer cell line Panc1; assay: Inhibitory activity against activation of tumor cell by FSTL1, RANKL-/CCR2-positive cells (Examples 5, 7, 9-11); format: cell-based; conditions: antibody 10 μg/mL, 3 days
Experimental: It is known that tumor cells activated by stimulation with FSTL1 highly express molecule groups promoting bone metastasis and increase metastatic invasive capacity (Cancer Research 73: 6185, 2013). Thus, […] cells/well of a human pancreatic cancer cell line Panc1 were suspended in 1 mL/well of D-MEM medium (GIBCO/Thermo Fisher Scientific Inc. Cat. No. C11885500BT) containing 10% fetal bovine serum, supplemented with 50 ng/mL (final concentration) of FSTL1 (R&D Systems, Inc.) and 10 μg/mL of the anti-FSTL1 antibody (#5-2, #5-8, #5-10, #5-43, #6-55, or #7-34) or its isotype mouse IgG (anti-DNP antibody) as a control antibody “Control”, and cultured under stimulation (6-well plate). 3 days thereafter, the number of cells was counted while the cells were stained with a PE-labeled anti-RANKL antibody (eBioscience Cat. No. 12-6619) and a PE-labeled anti-CCR2 antibody (R&D Systems, Inc. Cat. No. FAB151P) in order to examine the expression of markers indicating bone metastatic properties, and the contents of RANKL-positive cells and CCR2-positive cells were analyzed by flow cytometry using FACScan (Becton, Dickinson and Company) to calculate the numbers of cells per culture. […] Therefore, in Examples below, judgment was made with the number of cells as an index.
In the same way as in Example 5, a human pancreatic cancer cell line Panc1 was supplemented with 50 ng/mL (final concentration) of FSTL1 (R&D Systems, Inc.) and 10 μg/mL of the anti-FSTL1 antibody (the same clones as in Example 6) or a control antibody and cultured under stimulation.
3 days thereafter, the number of cells was counted while the cells were stained with a PE-labeled anti-RANKL antibody and a PE-labeled anti-CCR2 antibody, and the contents of RANKL-positive cells and CCR2-positive cells were analyzed by flow cytometry using FACScan (Becton, Dickinson and Company) to calculate the numbers of cells per culture (FIG. 5B).
(§2) In the same way as in Example 5, a human pancreatic cancer cell line Panc1 was supplemented with 20 ng/mL (final concentration) of FSTL1 and 10 μg/mL of the anti-FSTL1 antibody (#5-2, #5-8, or #6-55) or a control antibody and cultured under stimulation. 3 days thereafter, the number of cells was counted while the cells were stained with a PE-labeled anti-RANKL antibody and a PE-labeled anti-CCR2 antibody, and the contents of RANKL-positive cells and CCR2-positive cells were analyzed by flow cytometry using FACScan (Becton, Dickinson and Company) to calculate the numbers of cells per culture (FIG. 6B).
as §2, with “50” for “20”, “#5-3, #6-55, #7-34, #8-1, #8-4, #8-7,” for “#5-8,”, “#8-8)” for “#6-55)”, “culture.” for “culture (FIG. 6B).”
as §2, with “50” for “20”, “(#6-55)” for “(#5-2, #5-8, or #6-55)”, “culture.” for “culture (FIG. 6B).”
It is known that tumor cells activated by stimulation with FSTL1 highly express molecule groups promoting bone metastasis and increase metastatic invasive capacity (Cancer Research 73: 6185, 2013). […]

[2] = Example 8, FSTL1 20 ng/mL, 8 days
[3] = Example 10, FIG. 6C/36C, FSTL1 50 ng/mL
[4] = Example 12, FSTL1 20 ng/mL, 8 days

| Molecule | inhibitory activity against the expansion of CD45-negative cells by FSTL1 (FSTL1; Example 6, FSTL1 50 ng/mL, 11 days) | inhibitory activity against the expansion of CD45-negative cells by FSTL1 (FSTL1; [2]) | inhibitory activity against the expansion of RANKL-positive cells and CCR2-positive cells ([1]; Example 7, FIG. 5B/35B, FSTL1 50 ng/mL) | inhibitory activity against the expansion of RANKL-positive cells and CCR2-positive cells ([1]; Example 9, FIG. 6B/36B, FSTL1 20 ng/mL) | inhibitory activity against the expansion of RANKL-positive cells and CCR2-positive cells [1, 3] | inhibitory activity against the expansion of CD45-negative cells by FSTL1 (FSTL1; [4]) |
| --- | --- | --- | --- | --- | --- | --- |
| B1 | higher inhibitory activity and substantially completely inhibited the action of FSTL1 | Inhibitory activity was confirmed; also recorded: exhibited inhibitory activity | higher inhibitory activity | exhibited inhibitory activity against the expansion of RANKL-positive cells and CCR2-positive cells; also recorded: higher inhibitory activity |  |  |
| B2 |  | exhibited inhibitory activity |  |  | high inhibitory activity; also recorded: higher inhibitory activity |  |
| B3 |  |  |  |  | high inhibitory activity; also recorded: higher inhibitory activity | stronger inhibitory activity was confirmed in the order of clone #7-34, #5-2, 46-55, and #8-7; also recorded: higher inhibitory activity was confirmed in the order of #7-34, #5-2, #6-55, and #8-7; also recorded: stronger inhibitory activity was confirmed in the order of clone #7-34, #5-2, 96-55, and #8-7 |
| B4 |  |  |  |  | high inhibitory activity; also recorded: higher inhibitory activity | stronger inhibitory activity was confirmed in the order of clone #7-34, #5-2, 46-55, and #8-7; also recorded: higher inhibitory activity was confirmed in the order of #7-34, #5-2, #6-55, and #8-7; also recorded: stronger inhibitory activity was confirmed in the order of clone #7-34, #5-2, 96-55, and #8-7 |
